Molecular target: T1, SARS-CoV-2 spike protein (full S1 and S2 regions, furin recognition sequence removed, histidine tag) (SARS-CoV-2, UniProt P0DTC2 14-1273)
T1 construct: whole, on cells; also called Exo-S; spike protein positive exosome
Assay: competition ELISA: ACE2 on plate, Exo-S with titrated antibody; competitor ACE2

B1: anti-spike protein monoclonal antibody clone A1-1C7 (antibody, V domains shown)
VH: EVQLQQSGTELVTPGASVKLSCTASGFNIKDTYVQWVKQRPEQGLEWIGRIDPASDNTFYASKFQGKASLSSDTSSNTAYMQLSSLTSGDTAVYYCSTYFSNFYYWGQGTPLTVSS
VL: DIQMTQSPASLSASVGDTVTITCGASENIYGALNWYQRKKGKSPQLLIYGATNLADGMSSRFSGRGSGRQYFLKISSLHPDDVATYYCQNVLSVPWTFGGGTKLEIK
notes: also called MAb2B (related to clone A1-1C7)
**Q.** For B1, which IC50 is on record?
**A.** The IC50 was 4.8 ng/mL.
